Square brackets hold non-standard residues; d marks the D form. Ends that are not written are not given here. APPA = 2-aminophenyl pentanoic acid; hArg = N=C(N)NCCCC[C@H](N)C(=O)O; Cit = NC(=O)NCCC[C@H](N)C(=O)O; Nle = CCCC[C@H](N)C(=O)O; Aib = CC(C)(N)C(=O)O
T1: ANGPTL3 (Homo sapiens, UniProt Q9Y5C1)
T1 construct: In humans, Evinacumab (a therapeutic mAb developed against ANGPTL3) caused a dose-dependent reduction; host or cells: human subjects (circulating endogenous protein)
T1 sequence (Q9Y5C1 17-460): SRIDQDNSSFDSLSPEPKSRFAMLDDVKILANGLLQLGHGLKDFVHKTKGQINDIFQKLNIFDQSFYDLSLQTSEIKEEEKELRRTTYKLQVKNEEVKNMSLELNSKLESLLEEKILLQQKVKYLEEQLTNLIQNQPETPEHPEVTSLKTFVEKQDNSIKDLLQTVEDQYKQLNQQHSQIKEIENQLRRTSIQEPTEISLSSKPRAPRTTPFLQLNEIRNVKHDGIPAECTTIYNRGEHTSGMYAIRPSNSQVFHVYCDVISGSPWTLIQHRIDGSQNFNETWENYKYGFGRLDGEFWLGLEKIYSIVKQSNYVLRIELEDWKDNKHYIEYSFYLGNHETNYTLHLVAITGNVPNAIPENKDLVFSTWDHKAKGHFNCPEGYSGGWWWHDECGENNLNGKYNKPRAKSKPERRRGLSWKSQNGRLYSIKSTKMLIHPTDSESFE


Molecular target: Anti-ANGPTL3 polyclonal antibody (ABC83, Sigma)
Test: SPR (Biacore T200), antibody immobilised on CM5, peptide as analyte at 1 mM
Conditions: not given

Row | Relative response | Molecule
1 | 5310 RU | [hArg]FAMLDDVKILANGLLQLGHGLKDFVHKTKGQI [Peptide of SEQ ID NO. 80 (Har-…)]
2 | 5820 RU | CRFAMLDDV[Cit]ILANGLLQLGHGLKDFVHKTKGQI [Peptide of SEQ ID NO. 87 (C-RFAMLDDV-Cit-…)]
3 | 5540 RU | RF[Aib]MLDDVKILANGLLQLGHGLKDFVHKTKGQI [Peptide of SEQ ID NO. 78 (RF-Aib-…)]
4 | 5810 RU | CRF[Aib]MLDDVKILANGLLQLGHGLKDFVHKTKGQI [Peptide of SEQ ID NO. 84 (C-RF-Aib-…)]
5 | 6080 RU | RFAMLDDV[Cit]ILANGLLQLGHGLKDFVHKTKGQI [Peptide of SEQ ID NO. 6 (RFAMLDDV-Cit-…)]
6 | 6150 RU | [Cit]FAMLDDV[Cit]ILANGLLQLGHGLKDFVHKTKGQI [Peptide of SEQ ID NO. 79 (Cit-FAMLDDV-Cit-…)]
7 | 4830 RU | RFAMLDDVKILANGLLQLGHGLKDFVHKTKGQI [Peptide of SEQ ID NO. 1 (…)]
8 | 5520 RU | C[Cit]FAMLDDV[Cit]ILANGLLQLGHGLKDFVHKTKGQI [Peptide of SEQ ID NO. 82 (C-Cit-FAMLDDV-Cit-…)]
9 | 5670 RU | R[APPA]AMLDDVKILANGLLQLGHGLKDFVHKTKGQI [Peptide of SEQ ID NO. 2 (R-APPA-…)]
10 | 5460 RU | CRFAMLDDVKILANGLLQLGHGLKDFVHKTKGQI [Peptide of SEQ ID NO. 49 (…)]
11 | 5850 RU | CRFAM[Nle]DDVKILANGLLQLGHGLKDFVHKTKGQI [Peptide of SEQ ID NO. 5 (CRFAM-Nle-…)]
12 | 5900 RU | C[hArg]FAMLDDVKILANGLLQLGHGLKDFVHKTKGQI [Peptide of SEQ ID NO. 83 (C-Har-…)]
13 | 4920 RU | C[Cit]FAMLDDVLILANGLLQLGHGLKDFVHKTKGQI [Peptide of SEQ ID NO. 85 (C-Cit-…)]
14 | 5130 RU | CR[APPA]AMLDDVKILANGLLQLGHGLKDFVHKTKGQI [Peptide of SEQ ID NO. 86 (C-R-APPA-…)]

Molecular target: T1, ANGPTL3
Test: not given
Conditions: humans, dose-dependent; cited from earlier work

Row | Molecule | reduction in LDL cholesterol levels | reduction in fasting triglyceride levels
15 | Evinacumab | up to 23% | up to 76%

Tested on: Anti-ANGPTL3 polyclonal antibody (ABC83, Sigma)
Test: Affinity determination of peptides with anti-ANGPTL3 antibody by surface plasmon resonance (Biacore T200)
Assay type: binding
Conditions: SPR, peptide 1 mM in 1×PBS over immobilized anti-ANGPTL3 pAb, 25° C., response 5 s before end of injection
Method: Affinity of novel peptides of the present invention with anti-ANGPTL3 antibody ‘ANG’ was analysed by surface plasmon resonance (SPR), using a Biacore instrument (Biacore T200, GE Healthcare). SPR experiments were performed at […] with a BIACORE T200 apparatus (GE Healthcare, Uppsala, Sweden).
Surface Preparation: (Procedure for Antibody immobilization) Series S Sensor Chip CM5 surface was activated by a 7-min injection of EDC-NHS. Anti-ANGPTL3 polyclonal antibody (ABC83, Sigma), diluted to 4.5 μg/mL in 10 mM acetate buffer (pH 4.0), was immobilized on one of the four flow cells of a Series S Sensor Chip CM5 with the aim of 10000 RU (resonance units) using amine-coupling. The surface was blocked with 1M ethanolamine (pH 8.5). One flow cell was immobilized as blank for reference subtraction (without antibody). 1×PBS was used as running buffer.
Binding experiments: 1 mM stock of novel peptides of the present invention were made in 1×PBS and binding studies were conducted by passing over blank as well as ligand (anti-ANGPTL3 pAb) immobilized surface. Each cycle consisted of 120 s analyte (novel peptides of the present invention) injection at a flow rate of 10 μL/min (the association phase), followed by a dissociation phase of 300 s. Purified human recombinant ANGPTL3 (FLAG-tag, 91009-1, bps bioscience) was used as positive control (1 μM) and was analyzed under identical condition. Complete dissociation of ANGPTL3 and anti-ANGPTL3 antibody interaction was achieved by regenerating surface with 10 mM glycine/HCl (pH 2.0) for 40 s at a flow rate of 10 μl/min injection.
Data Analysis: The data was analyzed using the Biacore T200 Evaluation software. All the curves were initially reference-subtracted (from blank immobilized surface) and then subtracted from zero analyte concentration. Baselines were adjusted to zero for all curves and data was presented as Relative response or binding RU (Average of 5 s window) 5 s before end of sample injection.
Affinity of novel peptides of vaccine with ANGPTL3 antibody ANG were analysed by surface plasmon resonance (SPR), using a Biacore instrument (Biacore T200, GE Healthcare). SPR experiments were performed at 25° C. with a BIACORE T200 apparatus (GE Healthcare, Uppsala, Sweden).

Row | Molecule | Relative response
16 | 1 (RFAMLDDVKILANGLLQLGHGLKDFVHKTKGQI; artificial ANGPTL3 peptide) [compound 1] | 4832.6 RU
17 | 2 (R[APPA]AMLDDVKILANGLLQLGHGLKDFVHKTKGQI) [compound 2] | 5674 RU
18 | 5 (CRFAM[Nle]DDVKILANGLLQLGHGLKDFVHKTKGQI) [compound 5] | 5850 RU
19 | 6 (RFAMLDDV[Cit]ILANGLLQLGHGLKDFVHKTKGQI) [compound 6] | 6084.1 RU
20 | 49 (CRFAMLDDVKILANGLLQLGHGLKDFVHKTKGQI; artificial ANGPTL3 peptide) [compound 49] | 5464.1 RU
21 | 78 (RF[Aib]MLDDVKILANGLLQLGHGLKDFVHKTKGQI) [compound 78] | 5539.6 RU
22 | 79 ([Cit]FAMLDDV[Cit]ILANGLLQLGHGLKDFVHKTKGQI) [compound 79] | 6152.5 RU
23 | 80 ([hArg]FAMLDDVKILANGLLQLGHGLKDFVHKTKGQI) [compound 80] | 5308.2 RU
24 | 82 (C[Cit]FAMLDDV[Cit]ILANGLLQLGHGLKDFVHKTKGQI) [compound 82] | 5518.3 RU
25 | 83 (C[hArg]FAMLDDVKILANGLLQLGHGLKDFVHKTKGQI) [compound 83] | 5895.2 RU
26 | 84 (CRF[Aib]MLDDVKILANGLLQLGHGLKDFVHKTKGQI) [compound 84] | 5813.7 RU
27 | 85 (C[Cit]FAMLDDVLILANGLLQLGHGLKDFVHKTKGQI) [compound 85] | 4924.7 RU
28 | 86 (CR[APPA]AMLDDVKILANGLLQLGHGLKDFVHKTKGQI) [compound 86] | 5130.1 RU
29 | 87 (CRFAMLDDV[Cit]ILANGLLQLGHGLKDFVHKTKGQI) [compound 87] | 5820.9 RU

Source: US20220380425A1, “ANGPTL3 BASED VACCINE FOR THE TREATMENT OF LIVER DISEASE” (CADILA HEALTHCARE LIMITED, priority 2019, published 2022)
